# Reference: publication PMC3364216, “The RuvA Homologues from Mycoplasma genitalium and Mycoplasma pneumoniae Exhibit Unique Functional Characteristics”
# T1: RuvAMpn (Mycoplasma pneumoniae M129 (ATCC 29342), UniProt P75243 1-206)
# T1 sequence: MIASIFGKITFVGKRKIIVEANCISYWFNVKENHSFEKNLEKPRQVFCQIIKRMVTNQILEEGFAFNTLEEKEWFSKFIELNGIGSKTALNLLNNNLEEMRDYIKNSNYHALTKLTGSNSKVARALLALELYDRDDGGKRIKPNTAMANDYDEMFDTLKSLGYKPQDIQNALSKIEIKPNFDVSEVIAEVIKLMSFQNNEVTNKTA
# Key:
# RuvAMge [1] = target: T2, RuvAMge (Mycoplasma genitalium G37 (ATCC 33530), UniProt Q49424 1-205); test: EMSA; no Mg2+; single complex up to 4 uM protein; 20 mM Tris-HCl pH 7.5, 1 mM DTT, 1 mM EDTA, 12.3 nM DNA, 10 ul, on ice 10 min; 8% PAGE in 0.5x TBE; +/- 10 mM Mg2+; conditions: protein: recombinant; tags: N-terminal H10 (pET-16b); chain copies: 4; four-way Holliday junction HJ11:HJ12:HJ13:HJ14
# RecUMge = RecUMge (Mycoplasma genitalium, UniProt Q49422 1-166); test: EMSA; on ice, no BSA; three major and one minor complex at 500 nM; 20 mM Tris-HCl pH 7.5, 1 mM DTT, 1 mM EDTA, 12.3 nM DNA, 10 ul, on ice 10 min; 8% PAGE in 0.5x TBE; +/- 10 mM Mg2+
# RuvAMpn [2] = target: T1, RuvAMpn; test: EMSA; no Mg2+; two complexes (I and II); 20 mM Tris-HCl pH 7.5, 1 mM DTT, 1 mM EDTA, 12.3 nM DNA, 10 ul, on ice 10 min; 8% PAGE in 0.5x TBE; +/- 10 mM Mg2+; conditions: protein: recombinant; tags: N-terminal H10 (pET-16b); chain copies: 4; four-way Holliday junction HJ11:HJ12:HJ13:HJ14
# RuvAMpn [3] = target: T1, RuvAMpn; test: EMSA; no Mg2+; efficiency similar to HJ; 20 mM Tris-HCl pH 7.5, 1 mM DTT, 1 mM EDTA, 12.3 nM DNA, 10 ul, on ice 10 min; 8% PAGE in 0.5x TBE; +/- 10 mM Mg2+; conditions: protein: recombinant; tags: N-terminal H10 (pET-16b); single strand
# RuvAMge [4] = target: T2, RuvAMge; test: EMSA; no Mg2+; part of the complexes is with residual ss HJ11; 20 mM Tris-HCl pH 7.5, 1 mM DTT, 1 mM EDTA, 12.3 nM DNA, 10 ul, on ice 10 min; 8% PAGE in 0.5x TBE; +/- 10 mM Mg2+; conditions: protein: recombinant; tags: N-terminal H10 (pET-16b); chain copies: 4; 5' overhang 1 nt on HJ11rv
# RuvAMpn [5] = target: T1, RuvAMpn; test: as above; conditions: protein: recombinant; tags: N-terminal H10 (pET-16b); chain copies: 4; 5' overhang 1 nt on HJ11rv
binder,measurement,setting,value
HJ 1.1 (structured_DNA) DNA 1: GCGACGTGATCACCAGATGATTGCTAGGCATGCTTTCCGCAAGAGAAGC DNA 2: GGCTTCTCTTGCGGAAAGCATGCCTAGCAATCCTGTCAGCTGCATGGAAC DNA 3: GGTTCCATGCAGCTGACAGGATTGCTAGGCTCAAGGCGAACTGCTAACGG DNA 4: ACCGTTAGCAGTTCGCCTTGAGCCTAGCAATCATCTGGTGATCACGTCGC,binding result,RuvAMge [1],binds
same,binding result,RecUMge,binds
same,binding result,RuvAMpn [2],binds
GCGACGTGATCACCAGATGATTGCTAGGCATGCTTTCCGCAAGAGAAGC (ssDNA) [HJ11],binding result,RuvAMpn [3],binds
HJ11/HJ11rv (dsDNA) DNA 1: GCGACGTGATCACCAGATGATTGCTAGGCATGCTTTCCGCAAGAGAAGC DNA 2: GGCTTCTCTTGCGGAAAGCATGCCTAGCAATCATCTGGTGATCACGTCGC,binding result,RuvAMge [4],binds
same,binding result,RuvAMpn [5],binds
